{"source": "paper PMC7081899", "binders": {"B1": {"name": "13B Fab (Fab, V domains shown)", "VH": "LEESGGGLVQPEGSLTLTCKASGFDFSDYHVQWVRQSPGKGLEFIGGIAYTGNIYYASWAKGRFTISKTSSTTVTLQMTTLTAADTATYFCARAYGYASAPYAQYFNLWGPGTLVTVSS", "VL": "DIVMTQTPASVSEPVGGTVTINCQASQSRGNNYLSWYQQKPGQSPSLLIYRTSTLASGVPSRFKGSGSGTQFTLTISDLECADAATYYCLYGYYSSRNPDFAFGGGTEVVVK"}}, "molecular_target": "BG505_mut123_N241 SOSIP (HIV-1 (subtype A, BG505)) (UniProt Q2N0S6)", "assay": "negative-stain EM"}
{"binder": "B1", "values": [{"measurement": "percent of particles that were trimers with no Fab bound", "result": 57, "unit": "%"}, {"measurement": "percent of particles with one Fab bound", "result": 43, "unit": "%"}]}
